Where no end group is shown, it is not given here.
Columns and labels:
V8 protease (Endo Gluc) = V8 protease (Endo Gluc) (Staphylococcus aureus, UniProt P0C1U8); test: Protease digestion with V8 protease; type: physicochemical; details: pH 5.80
Experimental: (§1) Nisin is comparatively resistant to proteolysis by trypsin under the optimized conditions described above. To determine whether nisin is also resistant to other proteolytic enzymes under similar conditions, partially purified nisin was exposed to pepsin, thrombin, V8 protease (Endo Gluc), subtilisin, papain, thermolysin, or clostripain at pH 5.80. Pepsin exposure was also performed at pH 3.50. […] Pepsin at pH 5.80 and thrombin appeared ineffective against the impurities as well.
(§2) Digestion experiments using pepsin (EC3.4.23.1), thrombin (EC3.4.21.5), V8 protease (EC3.4.21.19), subtilisin (EC3.4.21.62), papain (EC3.4.22.2), thermolysin (EC3.4.24.27), and clostripain (EC3.4.22.8) were performed essentially as described for trypsin and at pH 5.80. Pepsin digestion was also performed at pH 3.50. For trypsin digestions using trypsin linked to a solid matrix (e.g. insoluble trypsin), 1.6 liters of partially purified nisin was prepared at 9.5 mg/ml in 10 mM Tris HCl and pH 5.50. Following the addition of 1.6 ml of TPCK-treated trypsin bound to beaded agarose (Sigma Chemical Company), the reaction mixture was incubated at 30° C. for 6 hours with frequent agitation. Insoluble trypsin was removed by centrifugation at approximately 4000×g for 7 minutes. The resultant supernatant containing nisin was prepared for HPLC analysis.

trypsin [1] = test: Tryptic digestion of nisin at pH 7.0, SDS-PAGE and HPLC; type: physicochemical; details: pH 7.0, nisin to trypsin about 10:1 (w/w), 30° C., after 96 hr
Experimental: Nisin has two internal lysine residues that are potential targets of the proteolytic enzyme trypsin. To determine whether nisin could be digested by trypsin, a digestion reaction mixture was prepared where a nisin preparation, partially purified nisin from a fermentor run, was exposed to trypsin under conditions optimal for trypsin activity. These conditions included a reaction pH of 7.0 and a nisin to trypsin ratio of about 10:1 (w/w). Samples were incubated at 30° C. and aliqoutes were removed for analysis every 24 hr, beginning at time zero. […] After 96 hr of treatment, more than 90% of nisin was degraded.
Tryptic digestion of nisin (50 mg) was carried out in 50 ml of a buffer consisting of 25mM sodium acetate, 6 mM Tris acetate, 5 mM CaCl2, and pH 7.0. One ml of USP grade trypsin (5mg/ml) was added followed by incubation at 30° C. Thereafter, 500 μl aliqouts of trypsin were added at times 24, 48, 72, and 96 hours. At each time point in the experiment, 2 ml aliquots were removed for further analysis, of which […] was immediately plated on blood agar plates for determination of contamination. The remaining 1.8 ml was stored at −20° C. until the end of experiment for SDS-PAGE and HPLC analysis.

thrombin = thrombin (Homo sapiens, UniProt P00734); test: Protease digestion with thrombin; type: physicochemical; details: pH 5.80
Experimental: as §1, §2

papain = biological target: T1, papain (Carica papaya, UniProt P00784); test: Protease digestion with papain; type: physicochemical; details: pH 5.80
T1 sequence (P00784 134-345): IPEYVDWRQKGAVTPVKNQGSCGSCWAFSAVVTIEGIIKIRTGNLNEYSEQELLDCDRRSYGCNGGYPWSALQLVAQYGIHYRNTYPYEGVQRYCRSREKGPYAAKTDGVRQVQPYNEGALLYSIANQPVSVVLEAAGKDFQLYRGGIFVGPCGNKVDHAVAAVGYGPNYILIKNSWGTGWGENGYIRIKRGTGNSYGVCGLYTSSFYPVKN
Experimental: as §1, §2

[2] = biological target: T2, TPCK treated insoluble trypsin (Bos taurus, UniProt P00760); test: Insoluble trypsin (bound to beaded agarose) digestion, HPLC; type: physicochemical; details: 9.55 mg/ml, 1.6 ml insoluble trypsin on agarose, 6 hr, 30° C., trypsin removed by centrifugation
T2 construct: purchased Sigma Chemical Company
T2 sequence (P00760 24-246): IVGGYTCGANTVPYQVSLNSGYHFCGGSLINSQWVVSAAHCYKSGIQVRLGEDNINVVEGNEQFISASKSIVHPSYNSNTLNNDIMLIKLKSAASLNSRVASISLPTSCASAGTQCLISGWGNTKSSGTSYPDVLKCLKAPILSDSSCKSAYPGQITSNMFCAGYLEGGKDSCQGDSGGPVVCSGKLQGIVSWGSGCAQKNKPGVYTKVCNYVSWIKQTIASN
Experimental: To determine whether insoluble trypsin treatment of nisin preparations was also effective in digestion of impurities, but not nisin itself, 1.6 liters of partially purified nisin prepared at 9.55 mg/ml was treated with 1.6 ml of TPCK treated insoluble trypsin bound to beaded agarose. After 6 hr of incubation at 30° C., and following removal of insoluble trypsin by centrifugation, the overall nisin recovery was about 90%.
as §2

trypsin [3] = test: Soluble trypsin digestion at low pH and low trypsin to nisin ratio, HPLC; type: physicochemical; details: below pH 5.50, nisin 11 mg/ml, trypsin 27.5 μg/ml (400:1 w/w), overnight, room temperature
Experimental: Peptide analysis has identified over 40 peptides that co-purify with nisin. All of these peptides have been identified as being products of Lactococcus fermentation. Since it was determined that nisin, at neutral to slightly alkaline pH and high trypsin to nisin ratios, is subject to proteolysis by trypsin, conditions were altered in an attempt to identify conditions under which trypsin would not degrade nisin but would degrade the peptide impurities in the nisin sample. Reaction mixtures containing nisin preparations, at a concentration of 11 mg/ml, and USP grade trypsin at a concentration of 27.5 μg/ml, were incubated overnight at room temperature (400:1 w/w). The pH of the mixtures ranged from 5.25 to 6.5.
To further optimize the conditions for removal of peptide impurities from nisin preparations by tryptic digestion, two liters of partially purified nisin was prepared at 4.55 mg/ml and incubated with 25 mg of USP grade trypsin for 16 hrs at 30° C. in 10 mM citric acid, pH 5.80. […] Moreover, subsequent removal of trypsin using a molecular weight cut off membrane yielded a recovery of 87.5% nisin and 0.38% trypsin.
For treatment of nisin with soluble trypsin, 2 liters of partially purified nisin from a fermentation product was prepared at 4.55 mg/ml in 10 mM citric acid buffer and 5 mM CaCl2. […] Nisin recovery and purity was determined by SDS-PAGE and HPLC. […]

subtilisin = subtilisin (Bacillus licheniformis, UniProt P00780); test: Protease digestion with subtilisin; type: physicochemical; details: pH 5.80
Experimental: as §1, §2

clostripain = biological target: T3, clostripain (Hathewaya histolytica, UniProt P09870); test: Protease digestion with clostripain; type: physicochemical; details: pH 5.80
T3 sequence (P09870 whole entry, looked up): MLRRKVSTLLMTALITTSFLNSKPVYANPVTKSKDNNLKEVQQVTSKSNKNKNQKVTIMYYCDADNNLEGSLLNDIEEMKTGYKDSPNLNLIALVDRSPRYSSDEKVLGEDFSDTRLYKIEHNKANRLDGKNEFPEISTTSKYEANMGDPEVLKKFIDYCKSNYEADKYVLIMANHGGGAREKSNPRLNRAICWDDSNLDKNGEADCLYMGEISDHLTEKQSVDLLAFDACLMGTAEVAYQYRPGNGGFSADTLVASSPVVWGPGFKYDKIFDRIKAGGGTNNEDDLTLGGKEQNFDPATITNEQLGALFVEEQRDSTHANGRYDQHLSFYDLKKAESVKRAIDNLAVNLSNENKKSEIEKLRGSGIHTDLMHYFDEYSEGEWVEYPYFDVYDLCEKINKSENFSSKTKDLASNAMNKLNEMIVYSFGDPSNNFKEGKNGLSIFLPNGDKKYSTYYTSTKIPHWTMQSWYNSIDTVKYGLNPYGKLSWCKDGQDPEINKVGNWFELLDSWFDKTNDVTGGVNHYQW
Experimental: as §1, §2

pepsin = test: Protease digestion with pepsin; type: physicochemical
Experimental: as §1, §2

thermolysin = thermolysin (Bacillus thermoproteolyticus, UniProt P00800); test: Protease digestion with thermolysin; type: physicochemical; details: pH 5.80
Experimental: as §1, §2

[4] = tested on: mastitic isolate of Streptococcus agalactiae (strain #20); test: Antibacterial 96 well plate assay; type: cell-based; details: bacterial growth read as absorbance
Experimental: To confirm that the biological activity of nisin is also unaltered, in vitro bactericidal activity assay was performed. Trypsin-treated nisin was analyzed for antibacterial activity against a mastitic isolate of Streptococcus agalactiae (strain #20) in a 96 well plate assay and bacterial growth was read as absorbance readings on an ELISA reader.
Nisin activity was determined using an antibacterial assay against a mastitic isolate of Streptococcus agalactiae (IC 20) in a 96 well plate assay. Test samples were serially diluted into M17 10% lactose medium and then mixed with an equal volume of 10^4 cfu/ml. After 66 hr of incubation at room temperature, the plates were read on an ELISA reader at 450 nm. Wells containing bacterial growth gave high absorbance readings. The data was analyzed using a four-parameter curve-fitting software.

non-mastitic cows = test: Mammary infusion, somatic cell count of quarter milk; type: in vivo
Experimental: Bovine intra-mammary infusion of impure nisin stimulates the production of high levels of somatic cells in milk as part of an inflammatory reaction.
Non-mastitic cows were treated with an infusion of vehicle, untreated, and trypsin-treated nisin (30 mg/10 ml) in the quarter after the 4th, 5th, and 6th milkings. The somatic cell count of the milk was recorded before, during, and after milking. High somatic cell counts were indicative of an inflammatory reaction. Statistical analysis was carried out using two sided t-Test comparisons with unequal variance.

subtilisin, sequence (P00780 106-379): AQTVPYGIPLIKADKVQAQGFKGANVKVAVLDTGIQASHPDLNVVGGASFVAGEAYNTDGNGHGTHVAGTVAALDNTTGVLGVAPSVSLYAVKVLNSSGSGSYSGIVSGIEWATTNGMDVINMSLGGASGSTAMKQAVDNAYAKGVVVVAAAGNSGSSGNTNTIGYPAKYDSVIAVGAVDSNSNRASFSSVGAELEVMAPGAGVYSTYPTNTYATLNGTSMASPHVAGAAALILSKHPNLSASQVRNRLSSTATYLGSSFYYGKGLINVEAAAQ
thermolysin, sequence (P00800 233-548): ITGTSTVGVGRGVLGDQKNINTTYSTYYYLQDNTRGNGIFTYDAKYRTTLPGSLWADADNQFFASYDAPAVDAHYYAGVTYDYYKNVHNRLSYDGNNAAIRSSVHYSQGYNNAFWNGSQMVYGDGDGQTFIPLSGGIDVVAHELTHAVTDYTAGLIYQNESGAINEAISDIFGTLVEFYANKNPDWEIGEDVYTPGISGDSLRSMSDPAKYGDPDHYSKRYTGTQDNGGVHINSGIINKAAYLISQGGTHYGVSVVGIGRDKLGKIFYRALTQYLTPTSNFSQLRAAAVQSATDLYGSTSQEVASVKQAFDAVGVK
V8 protease (Endo Gluc), sequence (P0C1U8 69-336): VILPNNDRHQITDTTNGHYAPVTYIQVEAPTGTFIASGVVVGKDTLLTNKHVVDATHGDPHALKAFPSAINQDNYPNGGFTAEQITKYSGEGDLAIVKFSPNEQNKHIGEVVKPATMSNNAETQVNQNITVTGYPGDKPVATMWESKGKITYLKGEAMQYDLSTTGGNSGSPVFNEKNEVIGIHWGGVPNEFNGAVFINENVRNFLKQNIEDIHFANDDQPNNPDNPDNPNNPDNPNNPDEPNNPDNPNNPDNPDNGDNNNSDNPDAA

nisin (ITSISLCTPGCKTGALMGCNMKTATCHCSIHVSK; cysteine pairing not given here; also: lantibiotic nisin-A, modified residues not placed; UniProt P13068 24-57, looked up) [lysine-rich lantibiotic, polypeptide antimicrobial agent with lanthionine and β-methyl-lanthionine residues, used as food preservative]
proteolytic digestion of nisin by V8 protease (V8 protease (Endo Gluc)): resistant | nisin degraded by trypsin (trypsin [1]): more than 90% | proteolytic digestion of nisin by thrombin (thrombin): resistant | proteolytic digestion of nisin by papain (papain): resistant | overall nisin recovery after insoluble trypsin incubation [2]: about 90% | hydrolysis of nisin by trypsin (trypsin [3]): minimal hydrolysis | proteolytic digestion of nisin by subtilisin (subtilisin): resistant | proteolytic digestion of nisin by clostripain (clostripain): resistant | proteolytic digestion of nisin by pepsin (pepsin; pH 3.50): did not digest nisin | proteolytic digestion of nisin by pepsin (pepsin; pH 5.80): resistant | proteolytic digestion of nisin by thermolysin (thermolysin): resistant

trypsin/nisin: nisin preparation purified by selective trypsin digestion of peptide impurities (ITSISLCTPGCKTGALMGCNMKTATCHCSIHVSK; also: lantibiotic nisin-A: lanthionine thioether rings, Dha/Dhb, positions not given here; UniProt P13068 24-57, looked up)
antimicrobial activity compared with control, untreated nisin [4]: not substantially different | somatic cell count of milk from treated quarters (inflammatory reaction), summary in words (non-mastitic cows; intra-mammary infusion of 30 mg, non-mastitic cows): much lower and is not statistically different from quarters treated with buffer alone | Somatic Cell Count of Quarter Milk, mean of group (non-mastitic cows; milking 1 (before treatments; infusions 30 mg/10 ml given after 4th, 5th, 6th milkings)): 10 X1000 | Somatic Cell Count of Quarter Milk, mean of group (non-mastitic cows; milking 2 (before treatments)): 22 X1000 | Somatic Cell Count of Quarter Milk, mean of group (non-mastitic cows; milking 3 (before treatments)): 23 X1000 | Somatic Cell Count of Quarter Milk, mean of group (non-mastitic cows; milking 4 (before first treatment)): 21 X1000 | Somatic Cell Count of Quarter Milk, mean of group (non-mastitic cows; milking 5, infusions 30 mg/10 ml after 4th, 5th, 6th milkings): 54 X1000 | Somatic Cell Count of Quarter Milk, mean of group (non-mastitic cows; milking 6): 187 X1000 | Somatic Cell Count of Quarter Milk, mean of group (non-mastitic cows; milking 7): 300 X1000 | Somatic Cell Count of Quarter Milk, mean of group (non-mastitic cows; milking 8): 148 X1000 | Somatic Cell Count of Quarter Milk, mean of group (non-mastitic cows; milking 9): 106 X1000 | Somatic Cell Count of Quarter Milk, mean of group (non-mastitic cows; milking 10): 82 X1000 | Somatic Cell Count of Quarter Milk, mean of group (non-mastitic cows; milking 11): 103 X1000 | Somatic Cell Count of Quarter Milk, mean of group (non-mastitic cows; milking 12): 81 X1000 | Somatic Cell Count of Quarter Milk, mean of group (non-mastitic cows; milking 13): 60 X1000 | Somatic Cell Count of Quarter Milk, mean of group (non-mastitic cows; milking 14): 36 X1000 | Somatic Cell Count of Quarter Milk, mean of group (non-mastitic cows; milking 15): 53 X1000 | Somatic Cell Count of Quarter Milk, mean of group (non-mastitic cows; milking 16): 37 X1000 | Somatic Cell Count of Quarter Milk, mean of group (non-mastitic cows; milking 17): 40 X1000 | Somatic Cell Count of Quarter Milk, mean of group (non-mastitic cows; milking 18): 41 X1000
